Laboratory results taken from the supplement of paper PMC9732359.
± gives the uncertainty stated by the source.

Experiment: protein stability index of a GFP-peptide fusion (yeast GPS) (PSI 1-4); higher = more stable; sorted into four equal gates, so the index is relative within each strain
Settings: ubr1∆
Outline: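 Tiled yeast protein peptides of 17 residues were each joined downstream of GFP, on plasmids that also express Cherry. The pooled library was maintained in yeast, and mid-log cultures in leucine-free medium were sorted into four equal gates on the GFP/Cherry ratio. Plasmids from every gate were amplified by PCR and sequenced on Illumina, with barcodes linking reads to strains. The protein stability index of a peptide is its gate-number-weighted read frequency summed over the gates.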

Row | Sequence | protein stability index
1 | LVHTQIRKTPLAQKKAH [RPL3] | 1.63 ± 0.034
2 | LVIKSGKYTLGYKSTVK [RPL30] | 2.87 ± 0.05
3 | LVKTKELIKNYITARIM [FAS1] | 2.64 ± 0.073
4 | LVSLLDENDSKKNNAAS [YAR002W/NUP60] | 3.08 ± 0.056
5 | LVSSASQQLLEILVTEL [RPN2] | 1.8 ± 0.051
6 | LWALLNFLLPDIFGDSE [ISW2] | 2.64 ± 0.043
7 | LWDVATGETYQRFVGHK [ASC1] | 3.4 ± 0.094
8 | LWSIHPSRQFDHYESNQ [SRB8] | 2.64 ± 0.062
9 | LYAERVQDRGLSAVAQA [RPS3] | 3.22 ± 0.044
10 | LYDHWDKYHEQWIKFLL [SSN8] | 2.72 ± 0.054
11 | LYFEIIHGVLKNVDREV [FAS2] | 1.64 ± 0.18
12 | LYGKRFFPYYVHTIIAG [PRE7] | 1.14 ± 0.041
13 | LYKFQNFQDLSYLSETL [YML103C/NUP188] | 2.49 ± 0.11
14 | LYKTFFKRNAVFVGTIF [QCR9] | 1.36 ± 0.054
15 | LYNFLHKYVLTLQLYMV [RGR1] | 1.51 ± 0.039
16 | LYPCYFDINRSHKEGRR [SEC65] | 1.1 ± 0.08
17 | LYQDMAARHRARFRSIH [RPL20A] | 2.95 ± 0.07
18 | LYRSIESGEFDFDLFKE [YJL039C/NUP192] | 2.91 ± 0.11
19 | MAKDIEISASESKFILE [RRP45] | 3.02 ± 0.093
20 | MALKKNTHNKSTKRVTK [POP7] | 2.84 ± 0.06
21 | MANKEWRVREASTSALL [ECM29] | 2.26 ± 0.2
22 | MAPVKSQESINQKLALV [RPL30] | 2.25 ± 0.061
23 | MAQRTLKNKYESYDAAL [FAS2] | 3.064 ± 0.012
24 | MASGSTTFTKVAAKWNT [PRP8] | 2.93 ± 0.07
25 | MATPSFGNSSPQLTFTH [YML103C/NUP188] | 2.73 ± 0.062

Row | Sequence | protein stability index
26 | MEADPSLHPLFEQFEKF [RPN9] | 2.55 ± 0.05
27 | MEDKISEFLNVPFESLQ [YIL149C/MLP2] | 3.06 ± 0.057
28 | MEDPPSTVSGELNDNPA [YMR153W/NUP53] | 2.83 ± 0.051
29 | MEETEQKKIQINKEMGE [SMC3] | 2.49 ± 0.26
30 | MELLTQMDGFDNLGQTK [RPT4] | 3.44 ± 0.079
31 | MEMSEKIQFILEQMELS [RPN5] | 2.66 ± 0.19
32 | MERFSVLCNSNISKSRA [RRP6] | 2.12 ± 0.056
33 | MESIGSDILTAEKMRGN [RRP4] | 3.34 ± 0.092
34 | MFGIRSGNNNGGFTNLT [YDL088C/ASM4] | 3.4 ± 0.044
35 | MFIEEPTRMVRVAKGSG [SRP54] | 3.26 ± 0.15
36 | MFTATMTPVIEKIAAGY [PRP28] | 2.35 ± 0.076
37 | MGAINNNIPSLTSFAEE [SNF6] | 3.35 ± 0.1
38 | MGRMHSAGKGISSSAIP [RPS13] | 2.88 ± 0.041
39 | MHRKSLRRASATVPSAP [YAR002W/NUP60] | 2.74 ± 0.063
40 | MIELICSSATVPKHMLD [AAR2] | 1.94 ± 0.058
41 | MIFETIVDGKLKTEKIF [FAS1] | 2.17 ± 0.08
42 | MKESVVEINSSESDLDE [ESC2] | 3.16 ± 0.068
43 | MKVEVDSFSGAKIYPGR [RPL24B] | 2.92 ± 0.18
44 | MKYIQTEQQIEIPEGVT [RPL9B] | 2.64 ± 0.053
45 | MLGEDEGNTVLEKGNNP [SWP82] | 3.69 ± 0.16
46 | MLPGSSNGGGKVKPIRG [RPO31] | 3.07 ± 0.068
47 | MLRTVTSKTVSNQFKRS [COR1] | 3.02 ± 0.1
48 | MLSFCPSCNNMLLITSG [RPC11] | 2.83 ± 0.072
49 | MLVDLNVPWPQNSYADK [RPP1] | 1.12 ± 0.15
50 | MLWGGASMLGLFVFTEG [QCR10] | 3.19 ± 0.2

Row | Sequence | protein stability index
51 | MNAGGLFGAKPQNTTAT [YGR119C/NUP57] | 2.72 ± 0.059
52 | MNECIADQDMEDEDMVD [ESC2] | 3.08 ± 0.058
53 | MNEMCKKINAKEKLIGW [RPN8] | 3.08 ± 0.031
54 | MNIKPVQKQTRAGQRTR [RPS2] | 2.58 ± 0.073
55 | MNKIFTIFKSGEIDFIK [YML103C/NUP188] | 2.59 ± 0.06
56 | MNVQDRRRLLGPAAAKP [MTR3] | 2.97 ± 0.089
57 | MPGGYFHSEISPDSTVN [YAR002W/NUP60] | 2.76 ± 0.063
58 | MPLKILLATKQHDSSAN [CSN12] | 2.27 ± 0.044
59 | MPRLEEIDDFNDIDDLD [SEC65] | 3.23 ± 0.12
60 | MQLEEELMKLDGTEYVL [MED6] | 3.26 ± 0.076
61 | MQNSKVESVCQKLDILV [SMC4] | 1.87 ± 0.056
62 | MQPFDSGHDDLVHDVVY [YGL100W/SEH1] | 3.26 ± 0.093
63 | MRAKWRKKRTRRLKRKR [RPL41A] | 3.44 ± 0.15
64 | MSEEGPQVKIREASKDN [RPB3] | 3.08 ± 0.083
65 | MSFIFPSYAERQSSDES [YML031W/NDC1] | 2.5 ± 0.046
66 | MSGLPPPPPGFEEDSDL [PRP8] | 3.31 ± 0.078
67 | MSIDEEDKDSESFSEVC [YCG1] | 2.43 ± 0.067
68 | MSLKKCQEEVSTIEKDM [SMC2] | 2.79 ± 0.2
69 | MSNVVQARDNSQVFGVA [RPS14A] | 2.05 ± 0.041
70 | MSSQIIDRPKHELSRAE [SMD2] | 3.25 ± 0.11
71 | MSVKPIDNYITNSVRLF [SRP21] | 1.63 ± 0.079
72 | MSYVVRILSTLDRELLK [RPT3] | 2.88 ± 0.094
73 | MTDIWNTLIPESSLTIS [ECM29] | 2.87 ± 0.058
74 | MTEHETKDKAKKIREIY [BRR2] | 2.35 ± 0.1
75 | MTIPHMKYAVSKTSENK [SIR2] | 3.06 ± 0.1

Row | Sequence | protein stability index
76 | MTTEDPDSNHLSSETGI [SRB4] | 3.04 ± 0.081
77 | MVHLYSIVEECDARFDE [RPC17] | 2.74 ± 0.18
78 | MVLYKRKPILLPDPKPL [ITC1] | 2.66 ± 0.055
79 | MVNSHGIRYIRLKQVFN [NNF1] | 1.81 ± 0.052
80 | MVVNGPIPDARNAALRA [SCL1] | 2.35 ± 0.091
81 | MYNGKDRAQNSYQPMYQ [SSN3] | 3.2 ± 0.063
82 | MYQMITMGGNAELELVD [SMC4] | 2.54 ± 0.072
83 | NAAPANVTGGKAANFIQ [SWI1] | 2.46 ± 0.049
84 | NAARKAEASGEAAEEAE [RPS9B] | 2.89 ± 0.28
85 | NAASGSNSNVTNPSSIF [YOR098C/NUP1] | 2.73 ± 0.049
86 | NAEATKEEFSSAENRDE [CSE2] | 3.28 ± 0.069
87 | NAGTNDNSFNELTDNMS [MCD1] | 3.3 ± 0.05
88 | NAIRIGELFLNESWKSS [SRP72] | 3.12 ± 0.062
89 | NAKIIDAEVAQFLEQGL [SRP68] | 3.08 ± 0.041
90 | NALDKLRNNLNSLIEEI [YCG1] | 3.08 ± 0.092
91 | NATEVQKESDAKNETNS [ITC1] | 2.59 ± 0.2
92 | NAYASFLQRQGKLEVPG [RPS19A] | 3.2 ± 0.094
93 | NCEYEDPPNEGDPFDYK [RPB3] | 3.14 ± 0.06
94 | NCKKKKKRKKKNKSAID [RMP1] | 3.37 ± 0.16
95 | NDFFDNGDNLYGNDEEV [RPN4] | 1.05 ± 0.067
96 | NDFFPGEVVYLRKQKDS [ITC1] | 1.48 ± 0.081
97 | NDFKKIGRENENENEDD [POP5] | 2.79 ± 0.11
98 | NDHSKSANPKKTTITRV [SWI3] | 2.97 ± 0.051
99 | NDIKLFVDDTNVYRVTV [PRP8] | 2.57 ± 0.053
100 | NDSETHTEDESTKELKF [BRN1] | 3.19 ± 0.068
